From the supplement of paper PMC9112550, “Optimization of the antimicrobial peptide Bac7 by deep mutational scanning” (BMC Biology, 2022)

Test system: Escherichia coli TOP10
Experiment: shrunken log2 fold change of peptide-encoding DNA abundance (4.5 h post-induction vs induction); higher = less antimicrobial activity (less host growth inhibition)
Conditions: time post-induction: 4.5 h; library: site-saturation at positions 5, 18, 19, 20
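Note: peptides expressed intracellularly from a pBAD plasmid library in pooled LB shake-flask culture, induced with 0.3% L-arabinose, DNA abundance read by NGS, three biological replicates, DESeq2 with apeglm shrinkage.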

| Sequence | shrunken log2 fold change |
| --- | --- |
| RRIRPRPPRLPRPRPRPVAIPRP | -0.0776 |
| RRIRLRPPRLPRPRPRPIASPRP | -0.0599 |
| RRIRLRPPRLPRPRPRPHHSPRP | -0.506 |
| RRIRLRPPRLPRPRPRPVAEPRP | 0.396 |
| RRIRGRPPRLPRPRPRPKWCPRP | 0.113 |
| RRIRKRPPRLPRPRPRPYCSPRP | -0.0347 |
| RRIRMRPPRLPRPRPRPSHEPRP | 0.267 |
| RRIRVRPPRLPRPRPRPEIRPRP | 0.173 |
| RRIRNRPPRLPRPRPRPQAYPRP | -0.3 |
| RRIRARPPRLPRPRPRPWDKPRP | 0.0886 |
| RRIRWRPPRLPRPRPRPHTPPRP | 0.0133 |
| RRIRLRPPRLPRPRPRPTYDPRP | 0.0466 |
| RRIRFRPPRLPRPRPRPPKIPRP | 0.145 |
| RRIRPRPPRLPRPRPRPLEHPRP | -0.565 |
| RRIRDRPPRLPRPRPRPPSFPRP | 0.155 |
| RRIRSRPPRLPRPRPRPDTNPRP | -0.111 |
| RRIRNRPPRLPRPRPRPRAQPRP | 0.188 |
| RRIRCRPPRLPRPRPRPWAQPRP | -0.211 |
| RRIRLRPPRLPRPRPRPHFSPRP | -0.189 |
| RRIRPRPPRLPRPRPRPWIHPRP | -0.44 |
| RRIRRRPPRLPRPRPRPNSNPRP | -0.302 |
| RRIRQRPPRLPRPRPRPCQNPRP | -0.173 |
| RRIRERPPRLPRPRPRPISMPRP | 2.71 |
| RRIRGRPPRLPRPRPRPLAVPRP | 0.809 |
| RRIRRRPPRLPRPRPRPCWLPRP | 0.202 |

| Sequence | shrunken log2 fold change |
| --- | --- |
| RRIRDRPPRLPRPRPRPLCCPRP | 0.0616 |
| RRIRQRPPRLPRPRPRPPLQPRP | 0.218 |
| RRIRGRPPRLPRPRPRPNIFPRP | 0.398 |
| RRIRLRPPRLPRPRPRPKARPRP | -0.00543 |
| RRIRSRPPRLPRPRPRPNPHPRP | -0.139 |
| RRIRMRPPRLPRPRPRPEGGPRP | 1.33 |
| RRIRFRPPRLPRPRPRPGRPPRP | 0.514 |
| RRIRERPPRLPRPRPRPMHIPRP | -0.185 |
| RRIRWRPPRLPRPRPRPFHHPRP | -0.077 |
| RRIRHRPPRLPRPRPRPSEKPRP | -0.144 |
| RRIRCRPPRLPRPRPRPSRIPRP | -0.562 |
| RRIRYRPPRLPRPRPRPPRIPRP | -0.0175 |
| RRIRERPPRLPRPRPRPERKPRP | 0.0538 |
| RRIRPRPPRLPRPRPRPSAEPRP | 0.257 |
| RRIRWRPPRLPRPRPRPHMDPRP | -0.18 |
| RRIRCRPPRLPRPRPRPHQQPRP | 0.14 |
| RRIRHRPPRLPRPRPRPDWNPRP | -0.207 |
| RRIRSRPPRLPRPRPRPKFPPRP | 0.0385 |
| RRIRNRPPRLPRPRPRPFTQPRP | -0.348 |
| RRIRSRPPRLPRPRPRPSHRPRP | -0.41 |
| RRIRGRPPRLPRPRPRPGYVPRP | -0.00987 |
| RRIRYRPPRLPRPRPRPRLSPRP | -0.0417 |
| RRIRCRPPRLPRPRPRPGDTPRP | -0.0505 |
| RRIRKRPPRLPRPRPRPPAYPRP | 0.417 |
| RRIRDRPPRLPRPRPRPKGLPRP | 0.253 |

| Sequence | shrunken log2 fold change |
| --- | --- |
| RRIRQRPPRLPRPRPRPQFGPRP | 0.0348 |
| RRIRPRPPRLPRPRPRPKTAPRP | -0.109 |
| RRIRIRPPRLPRPRPRPCEYPRP | -0.115 |
| RRIRMRPPRLPRPRPRPDCCPRP | 2.61 |
| RRIRIRPPRLPRPRPRPCPWPRP | -0.161 |
| RRIRHRPPRLPRPRPRPQMHPRP | -0.00258 |
| RRIRQRPPRLPRPRPRPVQIPRP | 0.0268 |
| RRIRTRPPRLPRPRPRPDGGPRP | -0.145 |
| RRIRSRPPRLPRPRPRPPVMPRP | 0.0439 |
| RRIRMRPPRLPRPRPRPFPVPRP | -0.175 |
| RRIRYRPPRLPRPRPRPVCYPRP | -0.209 |
| RRIRTRPPRLPRPRPRPMRLPRP | -0.0194 |
| RRIRKRPPRLPRPRPRPLAGPRP | 0.286 |
| RRIRHRPPRLPRPRPRPICAPRP | -0.0362 |
| RRIRVRPPRLPRPRPRPDVEPRP | 0.372 |
| RRIRSRPPRLPRPRPRPRVVPRP | 0.245 |
| RRIRDRPPRLPRPRPRPWPGPRP | 0.104 |
| RRIRHRPPRLPRPRPRPDDPPRP | -0.0026 |
| RRIRFRPPRLPRPRPRPPIEPRP | -0.201 |
| RRIRNRPPRLPRPRPRPGLEPRP | -0.0966 |
| RRIRVRPPRLPRPRPRPVKTPRP | -0.11 |
| RRIRMRPPRLPRPRPRPHHVPRP | -0.143 |
| RRIRKRPPRLPRPRPRPSASPRP | 0.288 |
| RRIRIRPPRLPRPRPRPWDMPRP | -0.00715 |
| RRIRIRPPRLPRPRPRPSKLPRP | -1.04 |
